Broadly, the stoichiometry N is a count of units in the complex or per binding partner.

The results in this text go back to PMC5768738, “Structure of a MacAB-like efflux pump from Streptococcus pneumoniae” (Nature Communications, 2018).

The series deals with the molecule itself. Nature of the series: crystal structure; Se-Met Spr0693_(59–324) T197M/I317M, hanging drop at 12 °C, sodium acetate pH 4.5; SAD, 3.0 Å; three molecules in the asymmetric unit.

B1: Spr0693_(59–324) T197M/I317M, selenomethionine-labelled (domain or fragment, Streptococcus pneumoniae R6, UniProt Q8DQF9 59-324, looked up)
chain: SVLLSGTVTAKNEQYVYFDASKGDLDEILVSVGDKVSEGQALVKYSSSEAQAAYDSASRAVARADRHINELNQARNEAASAPAPQLPAPVGGEDATVQSPTPVAGNSVASIDAQLGDARDARADAAAQLSKAQSQLDAMTVLSTLEGTVVEVNSNVSKSPTGASQVMVHIVSNENLQVKGELSEYNLANLSVGQEVSFTSKVYPDKKWTGKLSYISDYPKNNGEAASPAAGNNTGSKYPYTIDVTGEVGDLKQGFSVNMEVKSKTK
modifications: selenomethionine instead of methionine
notes: Spr0693, Streptococcus pneumoniae R6, residues Ser59–Lys324 (without the TM and the membrane-proximal domain); Plasmid built on the full-length spr0693 plasmid (C-terminal tag) and purified on Ni-NTA; The structure was solved from a Se-Met crystal of the T197M/I317M double mutant; residues Pro142–Gly163 are not traced; also called truncated Spr0693 (Ser59–Lys324); TM&MP-truncated Spr0693; source: …
Turning to B1, the “stoichiometry N” value was determined as 6.
